Earlier results in PMC9539805.
pKd: −log10 of the molar value.

Tests used:
[1] = target: spike protein RBD (SARS-CoV-2) (UniProt P0DTC2)
[2] = target: spike protein (SARS-CoV-2) (UniProt P0DTC2)

CV-N (from UniProt P81180)
pKd [1]: 3.59 | pKd [2]: 4.73
